Assay results published in patent US7790673 (NEW YORK UNIVERSITY, dated 2010).

Key:
Aβ1-42 synthetic peptide = biological target: T1, Aβ1-42 synthetic peptide (UniProt P05067 672-713); assay: ELISA, Aβ1-42-coated wells, 0-37.5 nM cystatin C
T1 construct: domain: Aβ1-42; Coated on microtiter wells, freshly dissolved; Also used in the fibril and oligomerization assays; also called Aβ42
Protocol: (§1) Two different batches of each peptide were used in the experiments. Wild type and variant cystatin C, purified from conditioned media as described above, were compared to urinary cystatin C (Calbiochem Biosciences). Polystyrene microtiter plates (Immunolon 2; Dynex Technology) were coated for 16 hours at 4° C. with freshly dissolved Aβ peptides (400 ng in 100 µl of NaHCO_3 $pH$ 9.6 per well). After blocking with 200 µl Superblock (Pierce), increasing concentrations of either wild type, variant or urinary cystatin C (0-37.5 nM) in 100 µl TBS-T (20 mM Tris-HCl, 150 mM NaCl pH 7.4, containing 0.1% Tween-20) were added to the Aβ-coated wells and incubated for 3 hours at 37° C. Bound cystatin C was detected with 100 µl polyclonal anti-cystatin C antibody (1:600) followed by 100 µl horseradish peroxidase-conjugated F(ab')2 anti-rabbit IgG (1:4000, Amersham) and developed using 100 µl 3,3',5,5'-tetramethyl-benzidine as substrate; Absorbency was read at 450 nm after stopping the reaction with 100 µl 2.5N sulfuric acid. Non-linear regression analysis, estimation of dissociation constants and comparison of protein binding data were assessed for statistical significance with GraphPad Prism software (GraphPad, San Diego, Calif., USA). P values were calculated by one-way ANOVA of three independent repeated measures of duplicate samples. […]

Aβ1-40 synthetic peptide = biological target: T2, Aβ1-40 synthetic peptide (UniProt P05067 672-711); assay: ELISA, Aβ1-40-coated wells, 0-37.5 nM cystatin C
T2 construct: domain: Aβ1-40; Coated on microtiter wells, freshly dissolved; also called Aβ40
Protocol: as §1

[1] = biological target: T3, full-length βAPP (βAPP751 cDNA, in HEK293 cells) (UniProt P05067-8 18-751, limits assumed); assay: immunoprecipitation of HEK293 cell lysate proteins with anti-cystatin C antibody, immunoblot with 22C11
T3 construct: whole, on cells; Tested by co-immunoprecipitation from cell lysates, not on intact cells; also called β amyloid precursor protein; cell associated full-length βAPP
Protocol: Media was replaced 16 hours after transient transfection, harvested 24 hours later, and spun at 4,500×g for 10 minutes at 4° C. Cells were harvested in RIPA buffer (1% NP-40, 0.5% cholic acid, 0.1% SDS; 150 mM NaCl, 10 mM Tris-HCl, pH 8.0) with protease inhibitors (7.5 μg/ml Aprotinin; 5 μg/ml leupeptin; 2 mM PMSF) and centrifuged for 5 minutes at 10,000 rpm at 4° C. Cellular and secreted proteins were immunoprecipitated with either polyclonal antibodies and Protein A Sepharose (Pharmacia Biotech) for 4 hours at 4° C. or with monoclonal antibodies overnight at 4° C. and with GammaBind Plus Sepharose beads (Pharmacia Biotech) for 2 hours at 4° C.
The interaction of cystatin C with βAPP was examined in HEK293 cells stably expressing either wild type or variant cystatin C genes, and transiently transfected with either wild type βAPP or vector cDNAs. […] The data indicates binding between cystatin C and cell associated full-length as well as sβAPP.

Measured: binding result

B1: variant human cystatin C (L68Q, HCHWA-I variant) (other, UniProt P01034 27-146, looked up)
chain: SSPGKPPRLVGGPMDASVEEEGVRRALDFAVGEYNKASNDMYHSRALQVVRARKQIVAGVNYFLDVEQGRTTCTKTQPNLDNCPFHDQPHLKRKAFCSFQIYAVPWQGTMTLSKSTCQDA
notes: mature; Position 68 counts on the mature protein, not on the precursor with signal peptide; also called cystatin C-V; CysC-V
binds: Aβ1-42 synthetic peptide | Aβ1-40 synthetic peptide | [1]
